Experimental data from paper PMC3267046.

Substrate: O=[N+]([O-])c1cn2c(n1)OC[C@@H](OCc1ccc(OC(F)(F)F)cc1)C2
Experiment: purified protein
Format: biochemical, Nocardia farcinica

B1: (Nocardia farcinica IFM 10152) (protein)
chain: MRMSSTGEYVPSPSEWIGNQVAQYEASDGAEAGEFDGRPLVILTTVGRKTGALRKTPVMRVEHDGRYAVVASQGGAPTHPAWYFNLVADPRAQLRDKDAVLSVVARELAGPERAEWWERAVRAYPTYQEYQDNTRRLIPVLLLEPGR
  Km: 21.9 µM
  kcat: 0.33 ± 0.08 s⁻¹
  kcat/Km: 16000 ± 2000 M⁻¹ s⁻¹
